# B1: ATP-binding cassette sub-family C member 6 (Homo sapiens) (protein)
# chain: MAAPAEPCAGQGVWNQTEPEPAATSLLSLCFLRTAGVWVPPMYLWVLGPIYLLFIHHHGRGYLRMSPLFKAKMVLGFALIVLCTSSVAVALWKIQQGTPEAPEFLIHPTVWLTTMSFAVFLIHTERKKGVQSSGVLFGYWLLCFVLPATNAAQQASGAGFQSDPVRHLSTYLCLSLVVAQFVLSCLADQPPFFPEDPQQSNPCPETGAAFPSKATFWWVSGLVWRGYRRPLRPKDLWSLGRENSSEELVSRLEKEWMRNRSAARRHNKAIAFKRKGGSGMKAPETEPFLRQEGSQWRPLLKAIWQVFHSTFLLGTLSLIISDVFRFTVPKLLSLFLEFIGDPKPPAWKGYLLAVLMFLSACLQTLFEQQNMYRLKVLQMRLRSAITGLVYRKVLALSSGSRKASAVGDVVNLVSVDVQRLTESVLYLNGLWLPLVWIVVCFVYLWQLLGPSALTAIAVFLSLLPLNFFISKKRNHHQEEQMRQKDSRARLTSSILRNSKTIKFHGWEGAFLDRVLGIRGQELGALRTSGLLFSVSLVSFQVSTFLVALVVFAVHTLVAENAMNAEKAFVTLTVLNILNKAQAFLPFSIHSLVQARVSFDRLVTFLCLEEVDPGVVDSSSSGSAAGKDCITIHSATFAWSQESPPCLHRINLTVPQGCLLAVVGPVGAGKSSLLSALLGELSKVEGFVSIEGAVAYVPQEAWVQNTSVVENVCFGQELDPPWLERVLEACALQPDVDSFPEGIHTSIGEQGMNLSGGQKQRLSLARAVYRKAAVYLLDDPLAALDAHVGQHVFNQVIGPGGLLQGTTRILVTHALHILPQADWIIVLANGAIAEMGSYQELLQRKGALMCLLDQARQPGDRGEGETEPGTSTKDPRGTSAGRRPELRRERSIKSVPEKDRTTSEAQTEVPLDDPDRAGWPAGKDSIQYGRVKATVHLAYLRAVGTPLCLYALFLFLCQQVASFCRGYWLSLWADDPAVGGQQTQAALRGGIFGLLGCLQAIGLFASMAAVLLGGARASRLLFQRLLWDVVRSPISFFERTPIGHLLNRFSKETDTVDVDIPDKLRSLLMYAFGLLEVSLVVAVATPLATVAILPLFLLYAGFQSLYVVSSCQLRRLESASYSSVCSHMAETFQGSTVVRAFRTQAPFVAQNNARVDESQRISFPRLVADRWLAANVELLGNGLVFAAATCAVLSKAHLSAGLVGFSVSAALQVTQTLQWVVRNWTDLENSIVSVERMQDYAWTPKEAPWRLPTCAAQPPWPQGGQIEFRDFGLRYRPELPLAVQGVSFKIHAGEKVGIVGRTGAGKSSLASGLLRLQEAAEGGIWIDGVPIAHVGLHTLRSRISIIPQDPILFPGSLRMNLDLLQEHSDEAIWAALETVQLKALVASLPGQLQYKCADRGEDLSVGQKQLLCLARALLRKTQILILDEATAAVDPGTELQMQAMLGSWFAQCTVLLIAHRLRSVMDCARVLVMDKGQVAESGSPAQLLAQKGLFYRLAQESGLV
# Legend:
# [1] = substrate: NC(CCC(=O)NC(CNCC(=O)O)CSCCN1C(=O)C=CC1=O)C(=O)O; assay: (§1) TP_TRANSPORTER: uptake in membrane vesicles from MRP6-expressing Sf9 cells; format: functional, cell membranes, Membrane vesicle
# [2] = substrate: CCCCC/C=C\C\C=C/C=C/C=C/[C@@H](SC[C@@H](NC(=O)CC[C@H](N)C(=O)O)C(=O)NCC(=O)O)[C@@H](O)CCCC(=O)O; assay: as §1; format: functional, cell membranes, Membrane vesicle
protein,measurement,setting,value
B1,Km,[1],282 µM
same,Km,[2],0.6 µM
